Data: patent US20220332837A1

Target: OX40-6His Protein-196AAs-21.82 kDa (recombinant canine OX40) (canine)
Assay: phage ELISA, OX-40 coated (control)

Chain of OX40-6His Protein-196AAs-21.82 kDa (recombinant canine OX40) (canine) (chain, as listed by the source limits assumed): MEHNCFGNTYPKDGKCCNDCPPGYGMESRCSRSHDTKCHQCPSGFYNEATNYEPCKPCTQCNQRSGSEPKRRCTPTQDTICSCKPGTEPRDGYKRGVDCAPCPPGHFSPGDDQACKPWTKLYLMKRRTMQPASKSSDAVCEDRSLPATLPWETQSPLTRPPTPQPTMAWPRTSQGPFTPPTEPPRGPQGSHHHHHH

ELISA signal, Coating: OX-40: 0.35
Substance: M13KO7
